Test results from patent US20220177587A1, “METHODS AND USES OF VARIANT CD80 FUSION PROTEINS AND RELATED CONSTRUCTS” (Alpine Immune Sciences, Inc., priority 2018, published 2022).

Assays:
huCTLA4 = huCTLA4 (Homo sapiens, UniProt P16410); test: Flow binding to CHO cells stably expressing CTLA4; set-up: huCTLA4 and huPD-L1, full-length mammalian surface expression constructs were generated; expressed in transfected cells; host or cells: CHO cells, lentiviral transduction, sorted to >98% purity; conditions: Table E11, 33.3 nM; for CTLA4 Fold change to WT CD80: listed as WT CD80 ECD-Fc = 1.0; for CTLA4 MFI at 33.3 nM: CHO cells stably expressing CTLA4
Sequence of huCTLA4 (P16410 36-223): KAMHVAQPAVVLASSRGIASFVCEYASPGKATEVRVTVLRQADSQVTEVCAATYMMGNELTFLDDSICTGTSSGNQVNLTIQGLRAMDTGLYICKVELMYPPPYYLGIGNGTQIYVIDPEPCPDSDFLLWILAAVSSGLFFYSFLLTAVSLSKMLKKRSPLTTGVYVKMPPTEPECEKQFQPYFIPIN
In short: (§1)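 Flow cytometry on transfected CHO cells or CD28+ Jurkat/IL2 reporter cells, blocked 20 min in PBS/1% BSA/0.1% azide. Fusion protein 45 min on ice; PE anti-human Fc 1:150, 30 min on ice; fixed in 2% formaldehyde. Read-out PE MFI, EC50 calculated.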

huPD-L1 = huPD-L1 (Homo sapiens, UniProt Q9NZQ7); test: Flow binding to CHO cells stably expressing PD-L1; set-up: huCTLA4 and huPD-L1, full-length mammalian surface expression constructs were generated; expressed in transfected cells; host or cells: CHO cells, lentiviral transduction, sorted to >98% purity; conditions: Table E11; for PD-L1 Fold change to WT CD80 / PD-L1 MFI at 33.3 nM: 33.3 nM; for PD-L1 Fold change to WT CD80: listed as WT CD80 ECD-Fc = 1.0; for PD-L1 MFI at 33.3 nM: CHO cells stably expressing PD-L1; for Ratio of PDL1:CD28: MFI at 33.3 nM
Sequence of huPD-L1 (Q9NZQ7 19-290): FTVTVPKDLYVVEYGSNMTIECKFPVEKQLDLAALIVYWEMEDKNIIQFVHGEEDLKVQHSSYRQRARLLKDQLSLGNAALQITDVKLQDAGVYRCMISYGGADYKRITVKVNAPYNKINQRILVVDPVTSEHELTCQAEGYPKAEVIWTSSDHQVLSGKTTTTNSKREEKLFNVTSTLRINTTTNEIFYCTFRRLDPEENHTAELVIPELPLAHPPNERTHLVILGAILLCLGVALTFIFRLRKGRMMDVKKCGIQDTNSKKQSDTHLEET
In short: as §1

CD28 [1] = biological target: T1, CD28 (Homo sapiens, UniProt P10747); test: Jurkat/IL2 + CHO/OKT3 +/- PD-L1 reporter assay: PD-L1-dependent CD28 costimulation; type: cell-based; set-up: host or cells: Jurkat cells expressing an IL-2-luciferase reporter; conditions: Table E13; Jurkat/IL2 + CHO/OKT3/PD-L1; 5.0 nM
In short: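 Jurkat reporter cells (100,000/well) preincubated 15 min at room temperature with test protein, then cocultured 5 h at 37 °C with CHO aAPCs bearing anti-CD3 scFv (OKT3) with or without PD-L1. Luciferase luminescence (RLU) read after lysis-substrate addition.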

CD28 [2] = biological target: T1, CD28; test: Flow binding to Jurkat/IL2 reporter cells (CD28); set-up: host or cells: Jurkat cells expressing an IL-2-luciferase reporter; conditions: Table E11, 33.3 nM; for CD28 Fold change to WT CD80: listed as WT CD80 ECD-Fc = 1.0; for CD28 MFI at 33.3 nM: Jurkats (CD28)
In short: as §1

| Molecule | CTLA4 Fold change to WT CD80 (huCTLA4) | CTLA4 MFI at 33.3 nM (huCTLA4) | PD-L1 Fold change to WT CD80 (huPD-L1) | PD-L1 MFI at 33.3 nM (huPD-L1) | Ratio of PDL1:CD28 (huPD-L1) | Fold Increase over WT CD80-IgV-Fe (CD28 [1]) | Relative Luciferase Units (RLU), CD80 Cone 5.0 nM (CD28 [1]) [RLU] | CD28 Fold change to WT CD80 (CD28 [2]) | CD28 MFI at 33.3 nM (CD28 [2]) |
| --- | --- | --- | --- | --- | --- | --- | --- | --- | --- |
| H18Y/E35D/V68M/T79M/L85M (protein, UniProt P33681 35-288, looked up, variant H18Y E35D V68M T79M L85M) T-lymphocyte activation …: VIHVTKEVKEVATLSCGYNVSVEELAQTRIYWQKDKKMVLTMMSGDMNIWPEYKNRTIFDITNNLSIMILALRPSDEGMYECVVMKYEKDAFKREHLAEVTLSVKADFPTPSISDFEIPTSNIRRIICSTSGGFPEPHLSWLENGEELNAINTTVSQDPETELYAVSSKLDFNMTTNHSFMCLIKYGHLRVNQTFNWNTTKQEHFPDNLLPSWAITLISVNGIFVICCLTYCFAPRCRERRRNERLRRESVRPV | 9.3 | 16287 | 289.5 | 14907 | 14.3 | 2.9 | 1161 | 33.2 | 1041 |
| T13R/Q33R/E35D/M38I/M47L/V68M (protein, UniProt P33681 35-288, looked up, variant T13R Q33R E35D M38I M47L V68M) T-lymphocyte activation …: VIHVTKEVKEVARLSCGHNVSVEELAQTRIYWRKDKKIVLTMMSGDLNIWPEYKNRTIFDITNNLSIMILALRPSDEGTYECVVLKYEKDAFKREHLAEVTLSVKADFPTPSISDFEIPTSNIRRIICSTSGGFPEPHLSWLENGEELNAINTTVSQDPETELYAVSSKLDFNMTTNHSFMCLIKYGHLRVNQTFNWNTTKQEHFPDNLLPSWAITLISVNGIFVICCLTYCFAPRCRERRRNERLRRESVRPV | 0.1 | 193 | 87.0 | 4482 | 324.8 | 0.4 | 152 | 0.4 | 13.8 |
| T13R/Q33L/E35D/M47V/T62S/V68M/L85M (protein, UniProt P33681 35-288, looked up, variant T13R Q33L E35D M47V T62S V68M L85M) T-lymphocyte activation …: VIHVTKEVKEVARLSCGHNVSVEELAQTRIYWLKDKKMVLTMMSGDVNIWPEYKNRTIFDISNNLSIMILALRPSDEGTYECVVMKYEKDAFKREHLAEVTLSVKADFPTPSISDFEIPTSNIRRIICSTSGGFPEPHLSWLENGEELNAINTTVSQDPETELYAVSSKLDFNMTTNHSFMCLIKYGHLRVNQTFNWNTTKQEHFPDNLLPSWAITLISVNGIFVICCLTYCFAPRCRERRRNERLRRESVRPV | 0.1 | 105 | 77.0 | 3968 | 248.0 | 0.3 | 136 | 0.5 | 16 |
| T13R/Q33R/E35D/M38I/M47L/V68M/L85M (protein, UniProt P33681 35-288, looked up, variant T13R Q33R E35D M38I M47L V68M L85M) T-lymphocyte activation …: VIHVTKEVKEVARLSCGHNVSVEELAQTRIYWRKDKKIVLTMMSGDLNIWPEYKNRTIFDITNNLSIMILALRPSDEGTYECVVMKYEKDAFKREHLAEVTLSVKADFPTPSISDFEIPTSNIRRIICSTSGGFPEPHLSWLENGEELNAINTTVSQDPETELYAVSSKLDFNMTTNHSFMCLIKYGHLRVNQTFNWNTTKQEHFPDNLLPSWAITLISVNGIFVICCLTYCFAPRCRERRRNERLRRESVRPV | 12.6 | 22011 | 21.5 | 1106 | 77.9 | 0.4 | 153 | 0.5 | 14.2 |
| T13R/Q33R/E35D/M38I/M47L/V68M/E95V/L97Q (protein, UniProt P33681 35-288, looked up, variant T13R Q33R E35D M38I M47L V68M E95V L97Q) T-lymphocyte activation …: VIHVTKEVKEVARLSCGHNVSVEELAQTRIYWRKDKKIVLTMMSGDLNIWPEYKNRTIFDITNNLSIMILALRPSDEGTYECVVLKYEKDAFKRVHQAEVTLSVKADFPTPSISDFEIPTSNIRRIICSTSGGFPEPHLSWLENGEELNAINTTVSQDPETELYAVSSKLDFNMTTNHSFMCLIKYGHLRVNQTFNWNTTKQEHFPDNLLPSWAITLISVNGIFVICCLTYCFAPRCRERRRNERLRRESVRPV | 11.8 | 20652 | 372.0 | 19157 | 17.2 | 2.5 | 993 | 35.4 | 1111 |
| T13R/Q33L/E35D/M47L/V68M/L85M (protein, UniProt P33681 35-288, looked up, variant T13R Q33L E35D M47L V68M L85M) T-lymphocyte activation …: VIHVTKEVKEVARLSCGHNVSVEELAQTRIYWLKDKKMVLTMMSGDLNIWPEYKNRTIFDITNNLSIMILALRPSDEGTYECVVMKYEKDAFKREHLAEVTLSVKADFPTPSISDFEIPTSNIRRIICSTSGGFPEPHLSWLENGEELNAINTTVSQDPETELYAVSSKLDFNMTTNHSFMCLIKYGHLRVNQTFNWNTTKQEHFPDNLLPSWAITLISVNGIFVICCLTYCFAPRCRERRRNERLRRESVRPV | 0.1 | 141 | 62.7 | 3228 | 205.6 | 0.4 | 153 | 0.5 | 15.7 |

More lines, now with the values ahead:

| CTLA4 Fold change to WT CD80 (huCTLA4) | CTLA4 MFI at 33.3 nM (huCTLA4) | PD-L1 Fold change to WT CD80 (huPD-L1) | PD-L1 MFI at 33.3 nM (huPD-L1) | Ratio of PDL1:CD28 (huPD-L1) | Fold Increase over WT CD80-IgV-Fe (CD28 [1]) | Relative Luciferase Units (RLU), CD80 Cone 5.0 nM (CD28 [1]) [RLU] | CD28 Fold change to WT CD80 (CD28 [2]) | CD28 MFI at 33.3 nM (CD28 [2]) | Molecule |
| --- | --- | --- | --- | --- | --- | --- | --- | --- | --- |
| 9.0 | 15798 | 249.8 | 12867 | 50.1 | 2.7 | 1072 | 8.2 | 257 | H18Y/V22D/E35D/M47V/N48K/V68M (protein, UniProt P33681 35-288, looked up, variant H18Y V22D E35D M47V N48K V68M) T-lymphocyte activation …: VIHVTKEVKEVATLSCGYNVSDEELAQTRIYWQKDKKMVLTMMSGDVKIWPEYKNRTIFDITNNLSIMILALRPSDEGTYECVVLKYEKDAFKREHLAEVTLSVKADFPTPSISDFEIPTSNIRRIICSTSGGFPEPHLSWLENGEELNAINTTVSQDPETELYAVSSKLDFNMTTNHSFMCLIKYGHLRVNQTFNWNTTKQEHFPDNLLPSWAITLISVNGIFVICCLTYCFAPRCRERRRNERLRRESVRPV |
| 0.1 | 107 | 320.4 | 16502 | 1107.5 | 0.4 | 147 | 0.5 | 15 | Q33R/E35D/M38I/M47L/V68M (protein, UniProt P33681 35-288, looked up, variant Q33R E35D M38I M47L V68M) T-lymphocyte activation …: VIHVTKEVKEVATLSCGHNVSVEELAQTRIYWRKDKKIVLTMMSGDLNIWPEYKNRTIFDITNNLSIMILALRPSDEGTYECVVLKYEKDAFKREHLAEVTLSVKADFPTPSISDFEIPTSNIRRIICSTSGGFPEPHLSWLENGEELNAINTTVSQDPETELYAVSSKLDFNMTTNHSFMCLIKYGHLRVNQTFNWNTTKQEHFPDNLLPSWAITLISVNGIFVICCLTYCFAPRCRERRRNERLRRESVRPV |
